According to patent US20100167390, “Novel Oligonucleotide and NF-kB Decoy Comprising the Same” (published 2010):

T1: NF-kB p52 (NFKB2) (UniProt Q00653 Q00653:1-454)
T1 sequence: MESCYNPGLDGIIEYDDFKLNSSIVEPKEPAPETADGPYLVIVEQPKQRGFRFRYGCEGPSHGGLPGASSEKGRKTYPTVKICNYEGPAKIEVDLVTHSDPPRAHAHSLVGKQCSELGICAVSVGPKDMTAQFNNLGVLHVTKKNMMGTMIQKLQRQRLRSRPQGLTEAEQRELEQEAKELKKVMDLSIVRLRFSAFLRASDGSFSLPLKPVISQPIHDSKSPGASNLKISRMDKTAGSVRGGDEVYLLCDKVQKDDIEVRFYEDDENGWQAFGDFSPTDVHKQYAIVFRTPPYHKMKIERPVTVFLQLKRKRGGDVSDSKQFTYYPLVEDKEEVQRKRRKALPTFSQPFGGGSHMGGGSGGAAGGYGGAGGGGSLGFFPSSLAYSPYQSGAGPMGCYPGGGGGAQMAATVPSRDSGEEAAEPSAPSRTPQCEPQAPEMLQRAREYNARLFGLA

B1: SODN91 (dsDNA)
DNA 1: GTAAAATGGGATTTCCCGAG
DNA 2: CTCGGGAAATCCCATTTTAC
modifications: PS all bonds, both strands
B2: PSODN9 (dsDNA)
DNA 1: GGAGGGATTTCCCGGG
DNA 2: CCCGGGAAATCCCTCC
modifications: PS only within consensus gggatttccc, both strands
B3: SODN30 (dsDNA)
DNA 1: GGCTGGGATTTCCCGCGG
DNA 2: CCGCGGGAAATCCCAGCC
modifications: PS all bonds, both strands
B4: PSODN16 (dsDNA)
DNA 1: CGCAGGGATTTCCCGCG
DNA 2: CGCGGGAAATCCCTGCG
modifications: PS only within consensus gggatttccc, both strands
B5: PSODN7 (dsDNA)
DNA 1: CGCGGGATTTCCCAGC
DNA 2: GCTGGGAAATCCCGCG
modifications: PS only within consensus gggatttccc, both strands
B6: SODN16 (dsDNA)
DNA 1: CGCAGGGATTTCCCGCG
DNA 2: CGCGGGAAATCCCTGCG
modifications: PS all bonds, both strands
B7: PSODN17 (dsDNA)
DNA 1: CCCTGGGATTTCCCGCC
DNA 2: GGCGGGAAATCCCAGGG
modifications: PS only within consensus gggatttccc, both strands
B8: SODN17 (dsDNA)
DNA 1: CCCTGGGATTTCCCGCC
DNA 2: GGCGGGAAATCCCAGGG
modifications: PS all bonds, both strands
B9: Control decoy (conventional NF-kB decoy) (dsDNA)
DNA 1: CCTTGAAGGGATTTCCCTCC
DNA 2: GGAGGGAAATCCCTTCAAGG
modifications: PS all bonds, both strands

Legend:
[1] = target: T2, NF-kB p65 (RelA) (UniProt Q04206 Q04206:1-551); test: competition; primary screen 3.06; conditions: protein: extract; tags: TPA and CI-stimulated Jurkat nuclear extract, Active Motif TransAM kit
Method: (§1) The measurement was performed in accordance with the instructions attached to the kit. The kit was made for quantifying the NF-κB bound to the solid phase by ELISA after adding an NF-κB solution to the wells in which the NF-κB (p65 protein) consensus binding sequence was immobilized and after washing the resultant. By this measurement method, the higher the binding capacity of the oligonucleotide to the NF-κB, the smaller amount of the NF-κB quantified by the ELISA.
(§2) More concretely, the above-described measurement was carried out as follows concretely: Each SODN solution was serially diluted with Complete Binding Buffer contained in the kit to prepare test samples (common ratio: 3-fold, 4 times, n=3). […] After allowing coloration for 10 minutes, the Stop Solution was added to stop the reaction, and the absorbances at 450 nm and 630 nm were measured.
(§3) The absorbance at 630 nm was subtracted from the absorbance at 450 nm and the mean value of the blanks was further subtracted from the resultant, and the percentage of the mean value of each concentration based on the mean value of the controls was calculated. The concentration at which the calculated value was 50% (i.e., at which the binding was inhibited by 50%) was calculated from the regression lines between two points interposing 50% (an analysis software Graph Pad PRISM 4, GraphPad SOFTWARE was used). […]

[2] = target: T2, NF-kB p65 (RelA); test: competition; conditions: protein: extract; tags: TPA and CI-stimulated Jurkat nuclear extract, Active Motif TransAM kit
Method: The binding capacity of each SODN to NF-κB was evaluated by measuring the remaining free NF-κB after reacting each SODN with NF-κB (p65), using a commercially available kit (TransAM Kit (NF-κB, p65, ACTIVE MOTIF) for measuring NF-κB, and using NF-κB molecules in the Jurkat, TPA and CI-Stimulated, Nuclear Extract (nuclear extract of Jurkat cells stimulated with a phorbol ester (TPA) and a calcium ionophore (CI)). The measurement was performed in accordance with the instructions attached to the kit. The kit was made for quantifying the NF-κB bound to the solid phase by ELISA after adding an NF-κB solution to the wells in which the NF-κB (p65 protein) consensus binding sequence was immobilized and after washing the resultant. By this measurement method, the higher the binding capacity of the oligonucleotide to the NF-κB, the smaller amount of the NF-κB quantified by the ELISA.
More concretely, the above-described measurement was carried out as follows concretely: Each SODN solution was serially diluted with Complete Binding Buffer contained in the kit to prepare test samples (common ratio: 3-fold, 4 times, n=3). To each well, 30 μL of the test sample was added. To the wells of the control and blank, Complete Binding Buffer was added. To each well, 20 μL of the Jurkat, TPA and CI-Stimulated, Nuclear Extract contained in the kit, after dilution with Complete Lysis Buffer to a concentration of 125 μg/mL, was added. To the wells of the blank, Complete Lysis Buffer was added. After incubation for 1 hour with shaking, each well was washed with 1× Wash Buffer contained in the kit, and an anti-NF-κB (p65 protein) antibody was added, followed by incubation for 1 hour. Each well was washed with 1× Wash Buffer, and the Developing Solution contained in the kit was added. After allowing coloration for 10 minutes, the Stop Solution was added to stop the reaction, and the absorbances at 450 nm and 630 nm were measured.
The binding capacities of the partially phosphorothioated oligonucleotides (the bonds between only all of the nucleotides constituting the consensus sequence in both strands are phosphorothioated, hereinafter also referred to as “PSODN”) of SODNs 7, 8, 9, 16, 17 and 30 of the present invention to the NF-κB (p65 protein) were tested in the same manner as described above.

[3] = target: NF-kB p50 (NFKB1) (UniProt P19838 P19838:1-433); test: competition; conditions: protein: extract; tags: TPA and CI-stimulated Jurkat nuclear extract, Active Motif
Method: (§4) The study was carried out in basically the same manner as in the above-described primary screening. The activities to inhibit the binding of various NF-κB family proteins to the consensus NF-κB binding site were compared under the conditions of common ratio of 3-fold, 6 times, n=2. As a control for comparison, fully phosphorothioated decoy oligonucleotide […] (SEQ ID NO:103) was used. The binding inhibition tests against various NF-κB family proteins were conducted using NF-κB Family TransAM Kit (ACTIVE MOTIF), and using NF-κB molecules in the Jurkat, TPA and CI-Stimulated, Nuclear Extract (ACTIVE MOTIF) for p50, and using NF-κB molecules in the Raji nuclear extract (ACTIVE MOTIF) for Rel-B and p52. As the primary antibodies, anti-NF-κB p50 antibody, anti-NF-κB p52 antibody and anti-Rel-B antibody were used, respectively, and the secondary antibody was HRP-labeled anti-rabbit IgG antibody in all cases.
(§5) More concretely, the above-described measurements were carried out as follows: Each oligonucleotide solution was serially diluted with Complete Binding Buffer to prepare test samples. Each of the test samples was added to the wells in an amount of 30 μL per well, and Complete Binding Buffer was added to the wells of the control and blank. Nuclear extract diluted with Complete Lysis Buffer was added to the wells in an amount of 20 μL per well, and Complete Lysis Buffer was added to the wells of blank. After incubation for 1 hour with shaking, each well was washed with 1× Wash Buffer, and the primary antibody was added, followed by incubation for 1 hour. Each well was washed with 1× Wash Buffer, and the secondary antibody was added, followed by incubation for 1 hour. Each well was washed with 1× Wash Buffer, and the Developing Solution was added. After allowing coloration for 10 minutes, the Stop Solution was added to stop the reaction, and the absorbances at 450 nm and 630 nm were measured.
(§6) The absorbance at 630 nm was subtracted from the absorbance at 450 nm and the mean value of the blanks was further subtracted from the resultant, and the percentage of the mean value of each concentration based on the mean value of the controls was calculated.

[4] = target: T1, NF-kB p52 (NFKB2); test: competition; conditions: protein: extract; tags: Raji nuclear extract, Active Motif
Method: as §4, §5, §6

[5] = target: T2, NF-kB p65 (RelA); test: competition; primary screen 1.33; conditions: protein: extract; tags: TPA and CI-stimulated Jurkat nuclear extract, Active Motif TransAM kit
Method: as §1, §2, §3

[6] = target: T2, NF-kB p65 (RelA); test: competition; primary screen 1.37; conditions: protein: extract; tags: TPA and CI-stimulated Jurkat nuclear extract, Active Motif TransAM kit
Method: as §1, §2, §3

[7] = target: T2, NF-kB p65 (RelA); test: competition; primary screen 1.31; conditions: protein: extract; tags: TPA and CI-stimulated Jurkat nuclear extract, Active Motif TransAM kit
Method: as §1, §2, §3

[8] = target: T2, NF-kB p65 (RelA); test: competition; ELISA competition with immobilized consensus site; 4.77 in Table 3-2, 4.93 in Table 4; Table 7 lists 4.93, 4.30, 3.24 in PSODN, FSODN, ODN columns; conditions: protein: extract; tags: TPA and CI-stimulated Jurkat nuclear extract, Active Motif TransAM kit

Sequence of NF-kB p50 (NFKB1) (P19838 1-433, one chain of several): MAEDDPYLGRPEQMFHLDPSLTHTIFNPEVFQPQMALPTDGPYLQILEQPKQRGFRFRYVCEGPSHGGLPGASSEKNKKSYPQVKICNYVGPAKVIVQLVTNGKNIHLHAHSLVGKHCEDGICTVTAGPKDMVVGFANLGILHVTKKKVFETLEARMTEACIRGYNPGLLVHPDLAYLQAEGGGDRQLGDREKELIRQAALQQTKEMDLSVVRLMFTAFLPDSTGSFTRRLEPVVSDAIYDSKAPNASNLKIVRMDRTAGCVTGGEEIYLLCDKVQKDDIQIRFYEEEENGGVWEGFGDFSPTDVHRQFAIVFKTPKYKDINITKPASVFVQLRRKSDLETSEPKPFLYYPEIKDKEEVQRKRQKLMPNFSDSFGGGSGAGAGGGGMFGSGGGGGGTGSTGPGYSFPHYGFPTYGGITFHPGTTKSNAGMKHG
T2 sequence (Q04206 whole entry, one chain of several): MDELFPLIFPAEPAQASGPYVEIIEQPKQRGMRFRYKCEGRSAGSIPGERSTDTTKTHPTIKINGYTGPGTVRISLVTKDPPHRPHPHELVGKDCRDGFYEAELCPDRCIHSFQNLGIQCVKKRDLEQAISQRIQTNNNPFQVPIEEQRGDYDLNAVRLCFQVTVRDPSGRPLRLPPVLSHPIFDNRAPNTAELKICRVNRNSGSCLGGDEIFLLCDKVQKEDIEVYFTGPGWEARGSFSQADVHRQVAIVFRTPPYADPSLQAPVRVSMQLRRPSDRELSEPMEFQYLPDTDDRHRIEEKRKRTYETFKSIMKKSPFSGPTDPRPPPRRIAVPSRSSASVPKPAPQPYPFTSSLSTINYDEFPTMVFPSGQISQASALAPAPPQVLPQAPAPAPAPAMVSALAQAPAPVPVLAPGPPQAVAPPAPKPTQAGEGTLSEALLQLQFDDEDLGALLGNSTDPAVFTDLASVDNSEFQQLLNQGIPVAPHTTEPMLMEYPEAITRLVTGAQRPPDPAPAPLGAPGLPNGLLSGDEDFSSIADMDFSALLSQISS

Row | Binder | IC50 [2] | IC50 [3] | IC50 [4] | other results
1 | B1 |  |  |  | IC50 [1]: 2.58 nM
2 | B2 | 0.54 nM | 0.91 nM | 1.55 nM | 
3 | B3 |  |  |  | IC50 [5]: 1.87 nM
4 | B4 | 0.41 nM | 0.8 nM | 2.37 nM | 
5 | B5 | 0.54 nM | 1.02 nM | 3.01 nM | 
6 | B6 |  |  |  | IC50 [6]: 1.98 nM
7 | B7 | 0.48 nM | 0.91 nM | 4.29 nM | 
8 | B8 |  |  |  | IC50 [7]: 1.81 nM
9 | B9 |  | 8.45 nM | 8.42 nM | IC50 [8]: 5.26 nM
